Test results published in US20260184748A1 (University of Pennsylvania, published 2026).
Where no end group is shown, it is not given here.

Columns and labels:
Assay in all cases: cell-based or functional assay
OXER1 = OXER1 (UniProt Q8TDS5 1-384, limits assumed)
CCR6 = molecular target: T1, CCR6 (UniProt P51684 1-374)
T1 sequence (looked up): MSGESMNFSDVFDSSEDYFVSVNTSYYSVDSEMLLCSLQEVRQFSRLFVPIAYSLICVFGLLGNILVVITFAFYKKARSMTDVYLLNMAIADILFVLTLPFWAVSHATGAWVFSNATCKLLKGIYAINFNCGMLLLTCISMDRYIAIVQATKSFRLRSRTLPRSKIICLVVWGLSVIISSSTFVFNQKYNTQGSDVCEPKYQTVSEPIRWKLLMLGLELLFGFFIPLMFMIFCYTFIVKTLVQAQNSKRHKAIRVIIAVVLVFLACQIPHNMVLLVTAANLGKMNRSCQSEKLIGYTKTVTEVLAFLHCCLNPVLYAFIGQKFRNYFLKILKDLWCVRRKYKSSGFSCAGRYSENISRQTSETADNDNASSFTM

MC4R = MC4R (UniProt P32245 1-332)
GPR35 = GPR35 (UniProt Q9HC97 1-309, limits assumed)
CXCR3 = molecular target: T2, CXCR3 (UniProt P49682 1-368)
T2 sequence (looked up): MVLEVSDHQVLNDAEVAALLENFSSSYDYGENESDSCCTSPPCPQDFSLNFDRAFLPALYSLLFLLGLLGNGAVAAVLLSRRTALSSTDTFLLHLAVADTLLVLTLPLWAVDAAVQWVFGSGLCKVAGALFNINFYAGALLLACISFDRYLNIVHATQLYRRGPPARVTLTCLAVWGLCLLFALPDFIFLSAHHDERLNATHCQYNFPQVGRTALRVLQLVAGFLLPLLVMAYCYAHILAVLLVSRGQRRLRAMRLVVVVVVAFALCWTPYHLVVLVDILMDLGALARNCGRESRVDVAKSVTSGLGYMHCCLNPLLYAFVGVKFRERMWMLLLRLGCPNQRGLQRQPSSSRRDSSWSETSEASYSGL

CX3CR1 = molecular target: T3, CX3CR1 (UniProt P49238 1-355)
T3 sequence (looked up): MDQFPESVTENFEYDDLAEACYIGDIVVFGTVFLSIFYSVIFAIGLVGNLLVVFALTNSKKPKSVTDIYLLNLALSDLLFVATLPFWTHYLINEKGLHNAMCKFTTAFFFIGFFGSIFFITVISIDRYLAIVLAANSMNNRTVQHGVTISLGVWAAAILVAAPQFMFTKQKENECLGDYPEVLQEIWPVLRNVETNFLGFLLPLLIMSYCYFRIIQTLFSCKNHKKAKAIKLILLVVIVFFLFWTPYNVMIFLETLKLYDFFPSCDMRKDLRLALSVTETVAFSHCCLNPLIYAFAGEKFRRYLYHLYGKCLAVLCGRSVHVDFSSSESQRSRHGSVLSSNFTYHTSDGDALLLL

EDNRB = molecular target: T4, EDNRB (UniProt P24530 27-442)
T4 sequence (looked up): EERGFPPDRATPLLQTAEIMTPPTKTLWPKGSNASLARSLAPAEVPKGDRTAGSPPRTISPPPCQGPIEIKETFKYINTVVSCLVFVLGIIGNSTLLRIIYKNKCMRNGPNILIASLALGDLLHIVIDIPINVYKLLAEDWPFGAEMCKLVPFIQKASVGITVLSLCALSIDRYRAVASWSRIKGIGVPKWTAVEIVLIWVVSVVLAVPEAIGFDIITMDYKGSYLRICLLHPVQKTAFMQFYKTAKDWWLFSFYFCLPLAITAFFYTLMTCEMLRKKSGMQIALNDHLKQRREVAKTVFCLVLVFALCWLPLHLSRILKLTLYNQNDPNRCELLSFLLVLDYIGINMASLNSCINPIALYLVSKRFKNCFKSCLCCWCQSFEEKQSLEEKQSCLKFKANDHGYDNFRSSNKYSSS

CRHR1 = molecular target: T5, CRHR1 (UniProt P34998 24-415, limits assumed)
T5 sequence (looked up): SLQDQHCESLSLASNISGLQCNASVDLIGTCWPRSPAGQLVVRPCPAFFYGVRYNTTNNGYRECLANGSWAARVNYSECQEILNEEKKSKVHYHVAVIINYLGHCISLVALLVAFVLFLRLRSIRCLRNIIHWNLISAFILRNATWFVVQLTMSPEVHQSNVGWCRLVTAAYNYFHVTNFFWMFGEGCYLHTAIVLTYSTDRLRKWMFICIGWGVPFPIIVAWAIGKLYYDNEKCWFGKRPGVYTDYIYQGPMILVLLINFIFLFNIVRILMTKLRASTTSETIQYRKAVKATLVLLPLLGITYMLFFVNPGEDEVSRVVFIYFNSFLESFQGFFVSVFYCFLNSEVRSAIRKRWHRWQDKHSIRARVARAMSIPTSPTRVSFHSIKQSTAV

CCR8 = CCR8 (UniProt P51685 1-355)
CALCR-RAMP3 = molecular target: T6, CALCR-RAMP3 (UniProt P30988 25-474; O60896 24-148, limits assumed)
T6 sequence (looked up) 1: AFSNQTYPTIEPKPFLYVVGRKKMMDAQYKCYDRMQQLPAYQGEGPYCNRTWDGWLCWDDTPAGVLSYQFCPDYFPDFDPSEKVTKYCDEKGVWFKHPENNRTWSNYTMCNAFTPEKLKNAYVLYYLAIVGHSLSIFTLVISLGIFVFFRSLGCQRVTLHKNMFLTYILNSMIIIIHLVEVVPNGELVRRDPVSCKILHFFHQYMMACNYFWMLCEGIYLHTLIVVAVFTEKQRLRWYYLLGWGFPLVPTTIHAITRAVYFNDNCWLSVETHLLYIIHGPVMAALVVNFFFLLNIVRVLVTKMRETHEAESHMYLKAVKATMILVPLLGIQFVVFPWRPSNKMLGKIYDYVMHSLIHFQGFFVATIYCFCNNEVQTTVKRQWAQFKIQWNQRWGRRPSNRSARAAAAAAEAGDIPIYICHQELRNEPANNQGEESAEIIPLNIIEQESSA
T6 sequence (looked up) 2: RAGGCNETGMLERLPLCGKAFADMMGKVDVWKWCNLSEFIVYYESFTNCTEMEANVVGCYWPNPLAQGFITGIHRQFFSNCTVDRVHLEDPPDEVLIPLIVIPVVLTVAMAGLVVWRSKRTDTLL

MC4R, sequence (P32245 whole entry): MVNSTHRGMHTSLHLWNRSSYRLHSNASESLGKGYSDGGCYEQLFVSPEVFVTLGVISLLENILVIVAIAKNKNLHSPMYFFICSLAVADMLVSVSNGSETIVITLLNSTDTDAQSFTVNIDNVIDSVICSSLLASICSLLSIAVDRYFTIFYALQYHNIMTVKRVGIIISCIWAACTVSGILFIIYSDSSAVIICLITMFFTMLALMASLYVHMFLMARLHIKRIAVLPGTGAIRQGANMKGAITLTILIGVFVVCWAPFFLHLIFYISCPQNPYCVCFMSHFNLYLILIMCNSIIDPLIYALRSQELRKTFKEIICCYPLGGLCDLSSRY
GPR35, sequence (Q9HC97 whole entry): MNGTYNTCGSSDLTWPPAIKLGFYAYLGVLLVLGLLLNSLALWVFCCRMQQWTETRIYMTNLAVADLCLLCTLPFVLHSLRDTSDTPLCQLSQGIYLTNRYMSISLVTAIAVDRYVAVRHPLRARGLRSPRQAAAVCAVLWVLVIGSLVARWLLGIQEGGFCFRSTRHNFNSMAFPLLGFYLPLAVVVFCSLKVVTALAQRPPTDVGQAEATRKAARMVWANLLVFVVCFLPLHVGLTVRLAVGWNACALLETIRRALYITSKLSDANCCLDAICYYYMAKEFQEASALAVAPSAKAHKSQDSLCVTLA
OXER1, sequence (Q8TDS5 whole entry): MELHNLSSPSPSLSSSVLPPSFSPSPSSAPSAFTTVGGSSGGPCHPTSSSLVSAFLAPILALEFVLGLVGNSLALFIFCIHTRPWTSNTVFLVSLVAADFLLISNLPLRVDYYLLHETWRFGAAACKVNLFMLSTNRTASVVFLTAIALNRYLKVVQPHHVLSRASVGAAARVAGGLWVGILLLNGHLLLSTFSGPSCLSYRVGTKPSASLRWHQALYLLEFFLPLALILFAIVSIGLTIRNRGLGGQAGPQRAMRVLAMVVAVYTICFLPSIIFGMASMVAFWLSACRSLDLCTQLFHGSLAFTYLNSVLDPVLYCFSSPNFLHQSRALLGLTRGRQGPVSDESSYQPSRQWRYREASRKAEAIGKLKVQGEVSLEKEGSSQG

QATVGDVNTDRPGLLDLK (also: synthesised on Rink amide resin, C-terminal amide not given here outright) [octadecaneuropeptide (ODN)]
% Activity, arrestin, antagonist mode, 2.5 uM (OXER1): -39.7%
% Activity, arrestin, antagonist mode, 2.5 uM (CCR6): -14.8%
% Activity, arrestin, antagonist mode, 2.5 uM (MC4R): -4.6%
% Activity, arrestin, antagonist mode, 2.5 uM (GPR35): -12.2%
% Activity, arrestin, antagonist mode, 2.5 uM (CXCR3): -7.5%
% Activity, arrestin, antagonist mode, 2.5 uM (CX3CR1): -0.8%
% Activity, arrestin, antagonist mode, 2.5 uM (EDNRB): -9.9%
% Activity, arrestin, antagonist mode, 2.5 uM (CRHR1): 5.4%
% Activity, arrestin, antagonist mode, 2.5 uM (CCR8): -17%
% Activity, arrestin, antagonist mode, 2.5 uM (CALCR-RAMP3): -0.1%
